Measured values published in the supplement of paper PMC9112550, “Optimization of the antimicrobial peptide Bac7 by deep mutational scanning” (BMC Biology, 2022).

System: Escherichia coli TOP10
Assay: shrunken log2 fold change of peptide-encoding DNA abundance (4.5 h post-induction vs induction); higher = less antimicrobial activity (less host growth inhibition)
Details: time post-induction: 4.5 h; library: site-saturation at positions 5, 18, 19, 20
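Further: peptides expressed intracellularly from a pBAD plasmid library in pooled LB shake-flask culture, induced with 0.3% L-arabinose, DNA abundance read by NGS, three biological replicates, DESeq2 with apeglm shrinkage.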

| Sequence | shrunken log2 fold change |
| --- | --- |
| RRIRWRPPRLPRPRPRPGQRPRP | 0.153 |
| RRIRPRPPRLPRPRPRPWHIPRP | -0.0921 |
| RRIRIRPPRLPRPRPRPIHLPRP | -0.352 |
| RRIRFRPPRLPRPRPRPPWNPRP | -0.128 |
| RRIRQRPPRLPRPRPRPAYVPRP | -0.0582 |
| RRIRVRPPRLPRPRPRPVPGPRP | 0.0985 |
| RRIRWRPPRLPRPRPRPKNWPRP | 0.188 |
| RRIRFRPPRLPRPRPRPNRWPRP | 0.0144 |
| RRIRFRPPRLPRPRPRPQLDPRP | 0.123 |
| RRIRCRPPRLPRPRPRPWHGPRP | -0.244 |
| RRIRQRPPRLPRPRPRPYKEPRP | -0.0137 |
| RRIRCRPPRLPRPRPRPRSIPRP | -0.0603 |
| RRIRCRPPRLPRPRPRPNWLPRP | -0.115 |
| RRIRLRPPRLPRPRPRPPSSPRP | 1.86 |
| RRIRVRPPRLPRPRPRPNGRPRP | 0.222 |
| RRIRRRPPRLPRPRPRPIAKPRP | 0.252 |
| RRIRPRPPRLPRPRPRPLVYPRP | -0.0742 |
| RRIRYRPPRLPRPRPRPITWPRP | -0.353 |
| RRIRERPPRLPRPRPRPHIAPRP | -0.099 |
| RRIRPRPPRLPRPRPRPQTQPRP | 0.115 |
| RRIRCRPPRLPRPRPRPTMKPRP | -0.246 |
| RRIRMRPPRLPRPRPRPLNNPRP | 0.0119 |
| RRIRPRPPRLPRPRPRPSQCPRP | -0.985 |
| RRIRQRPPRLPRPRPRPDHRPRP | 0.083 |
| RRIRHRPPRLPRPRPRPMPFPRP | 0.0462 |

| Sequence | shrunken log2 fold change |
| --- | --- |
| RRIRARPPRLPRPRPRPGTIPRP | -0.0682 |
| RRIRGRPPRLPRPRPRPCECPRP | -0.0257 |
| RRIRTRPPRLPRPRPRPPRYPRP | 0.152 |
| RRIRDRPPRLPRPRPRPFHNPRP | -0.271 |
| RRIRERPPRLPRPRPRPHNPPRP | -0.417 |
| RRIRNRPPRLPRPRPRPGNTPRP | -0.896 |
| RRIRKRPPRLPRPRPRPHPKPRP | 0.386 |
| RRIRGRPPRLPRPRPRPCINPRP | 0.573 |
| RRIRDRPPRLPRPRPRPEGMPRP | 0.896 |
| RRIRDRPPRLPRPRPRPIMLPRP | -0.0957 |
| RRIRVRPPRLPRPRPRPLNGPRP | 0.103 |
| RRIRKRPPRLPRPRPRPWIGPRP | 0.0664 |
| RRIRKRPPRLPRPRPRPPMGPRP | 0.185 |
| RRIRDRPPRLPRPRPRPPGVPRP | 0.127 |
| RRIRGRPPRLPRPRPRPHNEPRP | 0.264 |
| RRIRKRPPRLPRPRPRPQFKPRP | -0.037 |
| RRIRNRPPRLPRPRPRPQMHPRP | -0.108 |
| RRIRDRPPRLPRPRPRPLIDPRP | 0.0319 |
| RRIRWRPPRLPRPRPRPADNPRP | 0.212 |
| RRIRFRPPRLPRPRPRPHLSPRP | -0.219 |
| RRIRGRPPRLPRPRPRPHDDPRP | 0.0376 |
| RRIRFRPPRLPRPRPRPDAGPRP | 0.121 |
| RRIRRRPPRLPRPRPRPDLMPRP | 2.63 |
| RRIRIRPPRLPRPRPRPIPMPRP | -0.705 |
| RRIRIRPPRLPRPRPRPAFNPRP | -0.0935 |

| Sequence | shrunken log2 fold change |
| --- | --- |
| RRIRVRPPRLPRPRPRPKPVPRP | 0.42 |
| RRIRFRPPRLPRPRPRPMHTPRP | 0.5 |
| RRIRNRPPRLPRPRPRPWSCPRP | -0.42 |
| RRIRKRPPRLPRPRPRPFNIPRP | 0.186 |
| RRIRPRPPRLPRPRPRPLETPRP | 0.151 |
| RRIRERPPRLPRPRPRPSFPPRP | -0.704 |
| RRIRPRPPRLPRPRPRPVPAPRP | 0.361 |
| RRIRIRPPRLPRPRPRPDDIPRP | -0.151 |
| RRIRQRPPRLPRPRPRPKRLPRP | 0.281 |
| RRIRDRPPRLPRPRPRPVITPRP | 0.0916 |
| RRIRERPPRLPRPRPRPPIDPRP | 0.0361 |
| RRIRHRPPRLPRPRPRPCVTPRP | -0.609 |
| RRIRKRPPRLPRPRPRPWGRPRP | 0.179 |
| RRIRARPPRLPRPRPRPKNLPRP | -0.181 |
| RRIRTRPPRLPRPRPRPPVQPRP | 0.0423 |
| RRIRCRPPRLPRPRPRPNGKPRP | -0.8 |
| RRIRWRPPRLPRPRPRPVLPPRP | -0.0604 |
| RRIRNRPPRLPRPRPRPMQCPRP | 0.0637 |
| RRIRCRPPRLPRPRPRPIEYPRP | -0.148 |
| RRIRPRPPRLPRPRPRPKGIPRP | -0.0606 |
| RRIRSRPPRLPRPRPRPHQYPRP | -0.549 |
| RRIRHRPPRLPRPRPRPKFCPRP | -0.132 |
| RRIRARPPRLPRPRPRPMHVPRP | -0.0248 |
| RRIRIRPPRLPRPRPRPLDCPRP | -0.267 |
| RRIRFRPPRLPRPRPRPMYVPRP | -1.63 |

| Sequence | shrunken log2 fold change |
| --- | --- |
| RRIRKRPPRLPRPRPRPYVHPRP | -0.431 |
| RRIRLRPPRLPRPRPRPSQFPRP | -0.12 |
| RRIRWRPPRLPRPRPRPLALPRP | 0.362 |
| RRIRVRPPRLPRPRPRPMQRPRP | -0.0413 |
| RRIRFRPPRLPRPRPRPIWKPRP | 0.248 |
| RRIRKRPPRLPRPRPRPCEYPRP | 0.0394 |
| RRIRWRPPRLPRPRPRPLYYPRP | -0.762 |
| RRIRVRPPRLPRPRPRPGETPRP | -0.238 |
| RRIRVRPPRLPRPRPRPYEQPRP | -0.285 |
| RRIRMRPPRLPRPRPRPWSWPRP | -0.00716 |
| RRIRSRPPRLPRPRPRPWHHPRP | -0.0809 |
| RRIRIRPPRLPRPRPRPPHSPRP | -0.164 |
| RRIRFRPPRLPRPRPRPIAAPRP | 0.417 |
| RRIRFRPPRLPRPRPRPVQRPRP | -0.072 |
| RRIRGRPPRLPRPRPRPSCGPRP | 0.451 |
| RRIRNRPPRLPRPRPRPGCMPRP | 0.0522 |
| RRIRQRPPRLPRPRPRPARAPRP | 1.22 |
| RRIRIRPPRLPRPRPRPMAFPRP | -0.0587 |
| RRIRVRPPRLPRPRPRPSIGPRP | -0.197 |
| RRIRTRPPRLPRPRPRPDASPRP | 0.0856 |
| RRIRERPPRLPRPRPRPQHQPRP | -0.15 |
| RRIRGRPPRLPRPRPRPFQRPRP | -0.0485 |
| RRIRHRPPRLPRPRPRPFGNPRP | -0.119 |
| RRIRTRPPRLPRPRPRPVIAPRP | -0.189 |
| RRIRQRPPRLPRPRPRPRGKPRP | 0.00142 |

| Sequence | shrunken log2 fold change |
| --- | --- |
| RRIRNRPPRLPRPRPRPFPDPRP | -0.00602 |
| RRIRWRPPRLPRPRPRPTIHPRP | 0.13 |
| RRIRNRPPRLPRPRPRPVYIPRP | -0.434 |
| RRIRIRPPRLPRPRPRPVLCPRP | -0.0142 |
| RRIRDRPPRLPRPRPRPDICPRP | -0.0418 |
| RRIRLRPPRLPRPRPRPAPGPRP | 0.432 |
| RRIRERPPRLPRPRPRPLMIPRP | -0.348 |
| RRIRKRPPRLPRPRPRPAQEPRP | 0.371 |
| RRIRERPPRLPRPRPRPMTDPRP | -0.131 |
| RRIRFRPPRLPRPRPRPQNGPRP | -0.0443 |
| RRIRLRPPRLPRPRPRPWGTPRP | -0.169 |
| RRIRMRPPRLPRPRPRPHHKPRP | -0.316 |
| RRIRHRPPRLPRPRPRPSDYPRP | -0.343 |
| RRIRKRPPRLPRPRPRPGKVPRP | 0.248 |
| RRIRERPPRLPRPRPRPHIMPRP | -0.652 |
| RRIRCRPPRLPRPRPRPQKFPRP | -0.638 |
| RRIRNRPPRLPRPRPRPSLIPRP | -0.138 |
| RRIRVRPPRLPRPRPRPDKYPRP | -0.277 |
| RRIRMRPPRLPRPRPRPLSAPRP | 1.19 |
| RRIRMRPPRLPRPRPRPYAKPRP | 0.00938 |
| RRIRERPPRLPRPRPRPDSSPRP | -0.509 |
| RRIRARPPRLPRPRPRPAVLPRP | 0.549 |
| RRIRERPPRLPRPRPRPKFTPRP | -0.147 |
| RRIRWRPPRLPRPRPRPFACPRP | 0.00273 |
| RRIRRRPPRLPRPRPRPCLAPRP | 0.242 |

| Sequence | shrunken log2 fold change |
| --- | --- |
| RRIRVRPPRLPRPRPRPLNEPRP | -0.0647 |
| RRIRWRPPRLPRPRPRPLKQPRP | 0.206 |
| RRIRIRPPRLPRPRPRPTVCPRP | 0.312 |
| RRIRPRPPRLPRPRPRPTADPRP | 0.407 |
| RRIRARPPRLPRPRPRPTWTPRP | 0.425 |
| RRIRCRPPRLPRPRPRPGRYPRP | 0.0533 |
| RRIRVRPPRLPRPRPRPDDIPRP | -0.442 |
| RRIRTRPPRLPRPRPRPLDPPRP | -0.382 |
| RRIRCRPPRLPRPRPRPVFDPRP | -0.198 |
| RRIRRRPPRLPRPRPRPGTWPRP | 0.0793 |
| RRIRYRPPRLPRPRPRPAVDPRP | -0.0338 |
| RRIRLRPPRLPRPRPRPNNRPRP | -0.79 |
| RRIRRRPPRLPRPRPRPRPFPRP | 0.699 |
| RRIRCRPPRLPRPRPRPKPDPRP | 0.296 |
| RRIRSRPPRLPRPRPRPDCLPRP | -0.11 |
| RRIRSRPPRLPRPRPRPLVGPRP | 0.0355 |
| RRIRHRPPRLPRPRPRPQIAPRP | -0.103 |
| RRIRGRPPRLPRPRPRPNMVPRP | -0.00462 |
| RRIRPRPPRLPRPRPRPLMLPRP | -0.21 |
| RRIRQRPPRLPRPRPRPAYTPRP | 0.0569 |
| RRIRDRPPRLPRPRPRPDYIPRP | 0.0998 |
| RRIRARPPRLPRPRPRPNWLPRP | 0.275 |
| RRIRFRPPRLPRPRPRPNTAPRP | -0.986 |
| RRIRHRPPRLPRPRPRPVLLPRP | -0.0673 |
| RRIRIRPPRLPRPRPRPGIDPRP | -0.00862 |
